Laboratory results published in US7994133B2, “Isozyme-specific antagonists of protein kinase C” (The Board of Trustees of the Leland Stanford Junior …, priority 2003, dated 2011).
Numbering of substitutions follows the chain as printed.

B1: D(86)A: εPKC mutant wherein D at position 86 of ΨεRACK on εPKC is substituted with an A (protein)
chain: MVVFNGLLKIKICEAVSLKPTAWSLRHAVGPRPATFLLDPYIALNVDDSRIGQTATKQKTNSPAWHDEFVTDVCNGRKIELAVFHAAPIGYDDFVANCTIQFEELLQNGSRHFEDWIDLEPEGRVYVIIDLSGSSGEAPKDNEERVFRERMRPRKRQGAVRRRVHQVNGHKFMATYLRQPTYCSHCRDFIWGVIGKQGYQCQVCTCVVHKRCHELIITKCAGLKKQETPDQVGSQRFSVNMPHKFGIHNYKVPTFCDHCGSLLWGLLRQGLQCKVCKMNVHRRCETNVAPNCGVDARGIAKVLADLGVTPDKITNSGQRRKKLIAGAESPQPASGGSPSEEDRSKSAPTSPCDQEIKELENNIRKALSFDNRGEEHRAASSPDGQLMSPGENGEVRQGQAKRLGLDEFNFIKVLGKGSFGKVMLAELKGKDEVYAVKVLKKDVILQDDDVDCTMTEKRILALARKHPYLTQLYCCFQTKDRLFFVMEYVNGGDLMFQIQRSRKFDEPRSRFYAAEVTSALMFLHQHGVIYRDLKLDNILLDAEGHCKLADFGMCKEGILNGVTTTTFCGTPDYIAPEILQELEYGPSVDWWALGVLMYEMMAGQPPFEADNEDDLFESILHDDVLYPVWLSKEAVSILKAFMTKNPHKRLGCVASQNGEDAIKQHPFFKEIDWVLLEQKKIKPPFKPRIKTKRDVNNFDQDFTREEPVLTLVDEAIVKQINQEEFKGFSYFGEDLMP
B2: D(86)N: εPKC mutant wherein D at position 86 of ΨεRACK in εPKC is substituted with an N (protein)
chain: B1 chain with A86N
B3: Wt: wild type εPKC, human construct (protein)
chain: B1 chain with A86D

What was measured:
Format in all cases: cell-based
CHO and MCF-7 cells = assay: PKC translocation by Western blot, soluble to particulate fraction, after PMA; conditions: 10 minutes PMA, 100 nM in CHO, 10 nM in MCF-7
Procedure: To assess PKC distribution the different cell fractions were run on SDS PAGE, transferred for Western blot analysis and probed with anti-εPKC V5 antibodies. Lysates of overexpressed GFP-εPKC were diluted to approximately 0.2 μg/well. At this concentration endogenous εPKC was not detected. All other methods for this Example were performed as described, for example, in Example 4. It was also confirmed that the Wt and ΨεRACK εPKC mutants were sensitive to activation by phorbol ester and that they translocated from the soluble to the particulate fraction of the cell upon activation. Translocation of the εPKC mutants was determined using two different cell lines, MCF-7 and CHO. [CHO cells were stimulated for 10 minutes with 100 nM PMA (FIG. 6C). MCF-7 cells were stimulated with 10 nM PMA for 10 minutes (FIG. 6D, 6E), since stimulation of MCF-7 cells with higher doses of PMA caused a detachment of the cells]. After treatment with PMA, cells were fractionated into soluble and particulate fractions, and GFP-εPKC was detected and quantified by Western blot analysis using anti-εPKC. […] This is not due to PKC degradation; the total amount of εPKC was not changed upon activation. Therefore, GFP-εPKC ΨεRACK mutants were catalytically active and responded to activation by PMA by translocating from the soluble to the particulate fraction of the cell.

CHO cells = assay: Real-time confocal imaging of PMA-induced εPKC translocation with mathematical modeling; conditions: for time after PMA stimulation at which the enzyme was found at the cell periphery: YFP-εPKC D(86)A and CFP-εPKC Wt co-transfected in the same cell; for C3 / C5 / C1: constant of bi-exponential fit; for C1: level of εPKC in the cytosol at steady state; for k − 2: rate of detachment from the membrane; for k1 = C5: rate of εPKC opening in the cytosol
Procedure: CHO cells were grown on glass coverslips, and serum-starved as described in Example 4. For each experiment, cells were transferred to a commercially available metal coverslip holder (Molecular Probes) in which the coverslip formed the bottom of a 1 ml bath. The media was then replaced with extracellular buffer (120 mM NaCl, 5 mM KCl, 1.5 mM CaCl2, 1.5 mM MgCl2, 20 mM HEPES and 30 mM glucose). Cells were stimulated by either PMA (100 nM), or with ATP (1 mM) in extracellular buffer. Fluorescence images of GFP-tagged constructs were obtained using the 488 nm excitation line of a laser scanning confocal microscope (Pascal, Zeiss) and emission was collected through a 505-550 nm band pass filter. Cells were imaged on the stage of an inverted microscope (Axiovert 100M) using a 40× Zeiss Plan-apo oil immersion objective with 1.2 numerical aperture (NA). For dual color imaging of CFP and YFP fusion proteins, a spinning disk Nipkow confocal microscope was used. Cells were viewed using an inverted Olympus IX70 microscope with a 40× oil immersion Olympus objective (1.35NA) and images were acquired with a CCD camera (Hamamatsu) and 2×2 pixel binning. CFP was excited with the 442 nm laser line of a helium-cadmium laser (Kimmon) whereas YFP was imaged with the 514 nm line of an argon ion laser (Melles-Griot). To selectively photobleach YFP labeled proteins in local regions of the cytoplasm for FRAP experiments, the 514 nm line of an Enterprise laser (Coherent) at maximal power (˜400 mW) was used. For these experiments, a 60× oil immersion objective was used (1.4NA). Under these conditions, and by placing an iris in the beam path, it was possible to bleach 80% of the YFP fluorescence in 500 ms in an area of the cytosol measuring approximately 35 um2. Real time confocal images were acquired every 10-15 seconds for 20 minutes for experiments utilizing PMA, and every 5 seconds for a total duration of 3 minutes in the case of cells stimulated with ATP. Reagents were added to the cell chamber after the fifth image in each time series. […] All images were acquired at room temperature. Images were exported as 12 or 16 bit files and changes in fluorescence intensity were measured using MetaMorph® data analysis software (Universal Imaging Corp.). To monitor the translocation of PKC, a small region of interest was selected in the cytosol of each cell and fluorescence intensity values graphed against time after subtraction of background values and normalized so that the initial fluorescence was 100%. Averages of 10-15 cells from three independent experiments were used. To determine statistical significance, a 1 tail type 2 T-test (Microsoft excel) was used.
Mathematical modeling was obtained from data of cells expressing similar levels of the different εPKC ΨεRACK mutants. Non-linear least squares curve fitting analysis was performed using the EViews software (QMS) and differential equation analysis was performed using Berkeley Madonna™. All other methods for this Example were performed as described, for example, in Examples 4 and 6.
Fluorescence time courses were analyzed by a non-linear regression analysis with single and biexponential equations (1 and 2) as previously done by Nalefski and Newton Nalefski, E. A. & Newton, A. C., Biochemistry 40:13216-13229 (2001)], where I(t) is the concentration of observed molecules in the cytosol at time (t), and C1-5 are constants. I(t)=C1+C2e^(−C3(t)) 1. I(t)=C1+C2e^(−C3(t))+C4e^(−C5(t)) 2. Residual error graphs obtained using single exponential equations (FIG. 8A) and using biexponential equations (FIG. 8B) for the D(86)A εPKC mutant translocation process is shown in FIGS. 8A-8D. […] This process can be described as follows:
The value of C1 corresponds to the level of εPKC in the cytosol at steady state. It was next determined whether the hypothesis that the values obtained for C1 and C3 of D(86)A and Wt εPKCs are statistically equivalent. […]

[1] = Fluorescence recovery after photobleaching (FRAP) of cytoplasmic εPKCs; conditions: average of at least 10 cells
Procedure: CHO cells were grown on glass coverslips, and serum-starved as described in Example 4. For each experiment, cells were transferred to a commercially available metal coverslip holder (Molecular Probes) in which the coverslip formed the bottom of a 1 ml bath. The media was then replaced with extracellular buffer (120 mM NaCl, 5 mM KCl, 1.5 mM CaCl2, 1.5 mM MgCl2, 20 mM HEPES and 30 mM glucose). Cells were stimulated by either PMA (100 nM), or with ATP (1 mM) in extracellular buffer. Fluorescence images of GFP-tagged constructs were obtained using the 488 nm excitation line of a laser scanning confocal microscope (Pascal, Zeiss) and emission was collected through a 505-550 nm band pass filter. Cells were imaged on the stage of an inverted microscope (Axiovert 100M) using a 40× Zeiss Plan-apo oil immersion objective with 1.2 numerical aperture (NA). For dual color imaging of CFP and YFP fusion proteins, a spinning disk Nipkow confocal microscope was used. Cells were viewed using an inverted Olympus IX70 microscope with a 40× oil immersion Olympus objective (1.35NA) and images were acquired with a CCD camera (Hamamatsu) and 2×2 pixel binning. […] Under these conditions, and by placing an iris in the beam path, it was possible to bleach 80% of the YFP fluorescence in 500 ms in an area of the cytosol measuring approximately 35 um2. […] Images were exported as 12 or 16 bit files and changes in fluorescence intensity were measured using MetaMorph® data analysis software (Universal Imaging Corp.). To monitor the translocation of PKC, a small region of interest was selected in the cytosol of each cell and fluorescence intensity values graphed against time after subtraction of background values and normalized so that the initial fluorescence was 100%. […]
Different translocation rates may reflect differences in overall mobility (diffusion) of the εPKCs in cells. Therefore, fluorescence recovery after photobleaching (FRAP) of the cytoplasmic enzyme was measured; mobility of εPKCs was measured by monitoring the time required for the fluorescence to recover in a bleached region. […]

[2] = rate of closing in the cytosol, assumed negligible
[3] = rate of εPKC binding to the membrane, calculated with k-1 negligible

Molecule	increase of εPKC in the particulate fraction compared with D(86)N or Wt (CHO and MCF-7 cells)	rate of translocation (decrease of fluorescence in the cytoplasm) (CHO cells; 100 nM PMA, GFP fusion)	time at which translocation to the cell periphery became apparent (CHO cells; 100 nM PMA, GFP fusion)	time after PMA stimulation at which the enzyme was found at the cell periphery (CHO cells; 100 nM PMA)	(k2 + k − 2) = C3 (CHO cells; calculated with k-1 negligible)	k − 2/(k2 + k − 2) = C1/100 (CHO cells; calculated with k-1 negligible)	C3 (CHO cells; 100 nM PMA)	C5 (CHO cells; 100 nM PMA)	C1 (CHO cells; 100 nM PMA)	k − 1 (CHO cells; [2])	k − 2 (CHO cells; calculated with k-1 negligible)	k2 (CHO cells; [3])	k1 = C5 (CHO cells; calculated with k-1 negligible)	time to fifty percent FRAP [1]	steady state level of fluorescence in the cytoplasm (CHO cells; 100 nM PMA, GFP fusion)	k2 (CHO cells; rate of binding to the membrane, simulations using differential equations)	k − 1 (CHO cells; rate of closing, simulations using differential equations)	k − 2 (CHO cells; simulations using differential equations)	k1 (CHO cells; rate of opening, simulations using differential equations, k1 = C5 not valid)
B1	greater increase	faster rate	within one minute	1.5 min	0.016 ± 0.001	0.306 ± 0.002	0.016 ± 0.001	0.040 ± 0.007	30.59 ± 0.286	~0	0.005 ± 0.0004	0.011 ± 0.003	0.040 ± 0.007	9.2 ± 1.1 s					
B2			5 min				0.010 ± 0.0003	0.034 ± 0.004	38.38 ± 0.254					9.1 ± 1.6 s	higher level	0.01138	0.005	0.0052	0.0135
B3		slower rate	2 to 3 min	> 10 min	0.016 ± 0.004	0.305 ± 0.010	0.016 ± 0.004	0.009 ± 0.001	30.46 ± 0.991	~0	0.005 ± 0.0011	0.011 ± 0.002	0.009 ± 0.001	9.0 ± 1.2 s					
